Test results taken from patent US5643726, “Methods for modulating transcription from the amyloid β-protein precursor (APP) promoter” (The General Hospital Corporation, dated 1996).

How the values were obtained:
[1] = target: T1, USF (43 kDa, recombinant USF) (UniProt P22415 P22415:1-310); test: competition; cold competitor up to 50-fold failed to diminish complex on DK-1; settings: tags: expressed in and purified from bacteria; chain copies: 2
Description: (§1) EMSA was carried out as in Miner et al. (Miner, L. L. et al., *J. Neurosci. Res.* 33:10–18 (1992)). 1 ng of DNA fragment was incubated with 1 µg nuclear extract for 20 rain at 20° C., unless otherwise indicated. After incubation, the binding mixture was resolved on 6% polyacrylamide gels containing 4% glycerol in 25 mM Tris-borate (pH 8.3), 0.5 mM EDTA. Gels were dried and exposed to Kodak X-OMAT AR film with intensifying screen.
(§2) The amount of complex formed decreased with increasing amounts of cold fragment.

[2] = target: upstream stimulatory factor (USF), 43 kDa form (Homo sapiens (Human), UniProt P22415); test: cell-based or functional assay
[3] = target: T1, USF (43 kDa, recombinant USF); test: EMSA; visible complex with 350 pg rUSF; competed by cold DK-1; settings: tags: expressed in and purified from bacteria; chain copies: 2; label: 32P
Description: as §1, §2

T1 sequence (P22415 whole entry, the tested form may be a part, one chain of several): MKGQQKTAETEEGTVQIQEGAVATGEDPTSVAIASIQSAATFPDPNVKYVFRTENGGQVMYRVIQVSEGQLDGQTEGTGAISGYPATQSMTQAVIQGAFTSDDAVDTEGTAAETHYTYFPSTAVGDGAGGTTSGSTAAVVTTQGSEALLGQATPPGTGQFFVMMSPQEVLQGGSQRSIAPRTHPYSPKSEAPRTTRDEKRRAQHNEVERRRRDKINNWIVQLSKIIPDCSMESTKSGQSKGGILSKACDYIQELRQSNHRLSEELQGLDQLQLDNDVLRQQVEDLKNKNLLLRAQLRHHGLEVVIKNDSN

Row | Binder | relative luciferase units (USF activation of transcription from the APP promoter) [2] | further results
1 | AP-1/AP-4 Random (dsDNA) DNA 1: GGGCCGGAATCGTGCTGTCGCCTGGCTCT DNA 2: AGAGCCAGGCGACAGCACGATTCCGGCCC | – | binding result [1]: no binding
2 | human amyloid precursor-like protein APLP2 (other) GYIEALAAAAGTGFAVAEPQIAMFCGKLNMHVNIQTGKWEPDPTGTKSCFRTKEEVLQYCQEMYPELQITNVMEANQRVSIDNWCRRDKKQCKSRFVTPFKCLVGEFVSDVLLVPEKCRFFHKERMEVCENHQHWHTVVKEACLTQGMTLYSYGMLLPCGVDQFHGTEYVCCPQTKDYWSVSKEEEEEEDEEEEEEEDEEEDYDVYKSEFPTEADLEDFTEAAVDEDDEDEEEGEEVVEDRDYYYDTFKGDDYNEENPTEPGSDGTMSDKEITHDVKVPPTPLPTNDVDVYFETSADDNEHARFQKAEKEQLIERHRNRMDRVKKEWEEAELQAKNLPKAERQTLIQHFQAMVKALEKAEAASEKQQLVETHLARVEAMLNDRRMALENYLAALQRSDPPRPHRILQPLRRYVRAENKDRLHTIRHYQHVLAVDPEKAAQMKSQVMTHLHVIEERRNQSLSLLYKDPYVARIQENDELLQAERADMDQFTASISETPVDVRVSSEESEEIPPFHPFHPFPALPENEDTQPELYHPMKKGSGVGEQDGGLIGAEEKVINSKNKVDENMVIDETLDKEMIFNAERVGGLEERESVGPLREDFSLSSSASIGLLVIAVAIATVIVISLVMLRKRQVCTISHGIVEVDPMLTPEERHLNKMQNHGYENPTYKTLEQMQI | ~2 fold | –
3 | mouse amyloid precursor-like protein APLP1 (other) MGPTSPAARGQGRRWRPPLPLLLPLSLLLLRAQLAVGNLAVGSPSAAEAPGSAQVAGLCGRLTLHRDLRTGRWEPDPQRSRRCLLDPQRVLEYCRQMYPELHIARVEQAAQAIPMERWCGGTRSGRCAHPHHEVVPFHCLPGEFVSEALLVPEGCRFLHQERMDQCESSTRRHQEAQEACSSQGLILHGSGMLLPCGSDRFRGVEYVCCPPPATPNPSGMAAGDPSTRSWPLGGRAEGGEDEEEVESFPQPVDDYFVEPPQAEEEEEEEEERAPPPSSHTPVMVSRVTPTPRPTDGVDVYFGMPGEIGEHEGFLRAKMDLEERRMRQINEVMREWAMADSQSKNLPKADRQALNEHFQSILQTLEEQVSGERQRLVETHATRVIALINDQRRAALEGFLAALQGDPPQAERVLMALRRYLRAEQKEQRHTLRHYQHVAAVDPEKAQQMRFQVQTHLQVIEERMNQSLGLLDQNPHLAQELRPQIQELLLAEHLGPSELDASVPGSSSEDKGSLQPPESKDDPPVTLPKGSTDQESSSSGREKLTPLEQYEQKVNASAPRGFPFHSSDIQRDELAPSGTGVSREALSGLLIMGAGGGSLIVLSLLLLRKKKPYGTISHGVVEVDPMLTLEEQQLRELQRHGYENPTYRFLEERP | ~2 fold | –
4 | DK-1 fragment (APP promoter -58 to -30, AP-1/AP-4) (dsDNA) DNA 1: GGGCCGGATCAGCTGACTCGCCTGGCTCT DNA 2: AGAGCCAGGCGAGTCAGCTGATCCGGCCC | – | binding result [3]: binds
